The record followed here is paper PMC6616073 (Frontiers in Pharmacology, 2003).

Holding throughout (test): radioligand binding
Test [1] addresses T1, human α7 nicotinic acetylcholine receptor stably expressed in the rat pituitary tumor-derived cell line GH4C1 (human, UniProt P36544 23-502).
T1 construct: also called α7 nAChR; human α7 nAChR
The settings on record: one partner purified.

The target of test [2] is T1, human α7 nicotinic acetylcholine …. The settings on record: one partner purified. This is another data set of the same source.
Test [3] concerns the target T2, ligand-binding domain of the human nAChR α9 subunit (human, UniProt Q9UGM1 23-238).
T2 construct: also called α9 LBD; human α9 LBD
As to conditions: both partners purified.

The target of test [4] is T3, membrane-bound Torpedo californica nicotinic acetylcholine receptor (Torpedo californica).
T3 construct: also called T. californica nAChR; Torpedo nAChR
T3 sequence (P02710 25-461 limits assumed, chain 1 of 4): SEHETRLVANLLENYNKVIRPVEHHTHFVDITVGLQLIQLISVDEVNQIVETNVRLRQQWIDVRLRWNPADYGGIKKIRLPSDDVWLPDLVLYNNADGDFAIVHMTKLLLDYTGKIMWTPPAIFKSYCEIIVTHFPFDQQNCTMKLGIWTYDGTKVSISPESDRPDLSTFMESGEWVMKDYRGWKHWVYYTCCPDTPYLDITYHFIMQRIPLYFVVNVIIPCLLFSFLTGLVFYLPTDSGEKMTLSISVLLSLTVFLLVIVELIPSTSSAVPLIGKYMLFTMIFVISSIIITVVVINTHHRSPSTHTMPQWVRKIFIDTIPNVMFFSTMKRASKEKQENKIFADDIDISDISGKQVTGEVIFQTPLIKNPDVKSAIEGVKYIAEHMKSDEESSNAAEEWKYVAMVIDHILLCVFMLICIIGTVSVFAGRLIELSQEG
T3 sequence (P02712 25-493 limits assumed, chain 2 of 4, further chain): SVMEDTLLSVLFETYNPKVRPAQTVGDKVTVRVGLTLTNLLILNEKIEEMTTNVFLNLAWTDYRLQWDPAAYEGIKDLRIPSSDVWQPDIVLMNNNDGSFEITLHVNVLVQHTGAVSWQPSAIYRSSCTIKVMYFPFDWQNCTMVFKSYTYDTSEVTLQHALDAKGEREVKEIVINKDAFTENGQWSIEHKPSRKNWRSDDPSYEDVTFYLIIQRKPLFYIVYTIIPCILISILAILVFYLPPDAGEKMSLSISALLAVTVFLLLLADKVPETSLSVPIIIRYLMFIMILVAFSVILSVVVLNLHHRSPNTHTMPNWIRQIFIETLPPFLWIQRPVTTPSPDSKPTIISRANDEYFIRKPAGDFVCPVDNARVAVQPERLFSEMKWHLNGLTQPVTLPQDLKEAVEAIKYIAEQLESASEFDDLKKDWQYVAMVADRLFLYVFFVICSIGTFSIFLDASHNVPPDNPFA
T3 sequence (P02714 18-506 limits assumed, chain 3 of 4, further chain): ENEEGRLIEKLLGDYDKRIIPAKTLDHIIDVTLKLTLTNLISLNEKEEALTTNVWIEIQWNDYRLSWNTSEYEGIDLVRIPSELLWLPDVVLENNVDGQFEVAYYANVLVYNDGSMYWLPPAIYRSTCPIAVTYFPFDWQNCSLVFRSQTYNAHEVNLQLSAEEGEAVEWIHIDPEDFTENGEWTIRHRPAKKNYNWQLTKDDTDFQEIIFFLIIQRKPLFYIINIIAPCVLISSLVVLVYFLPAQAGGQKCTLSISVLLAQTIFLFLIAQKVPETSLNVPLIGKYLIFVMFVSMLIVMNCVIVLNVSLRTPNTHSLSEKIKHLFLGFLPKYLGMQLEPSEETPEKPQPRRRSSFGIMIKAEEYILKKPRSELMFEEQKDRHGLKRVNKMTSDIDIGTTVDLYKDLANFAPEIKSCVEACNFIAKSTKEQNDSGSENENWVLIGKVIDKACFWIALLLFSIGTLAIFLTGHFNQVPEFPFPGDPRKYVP
T3 sequence (P02718 22-522 limits assumed, chain 4 of 4, further chain): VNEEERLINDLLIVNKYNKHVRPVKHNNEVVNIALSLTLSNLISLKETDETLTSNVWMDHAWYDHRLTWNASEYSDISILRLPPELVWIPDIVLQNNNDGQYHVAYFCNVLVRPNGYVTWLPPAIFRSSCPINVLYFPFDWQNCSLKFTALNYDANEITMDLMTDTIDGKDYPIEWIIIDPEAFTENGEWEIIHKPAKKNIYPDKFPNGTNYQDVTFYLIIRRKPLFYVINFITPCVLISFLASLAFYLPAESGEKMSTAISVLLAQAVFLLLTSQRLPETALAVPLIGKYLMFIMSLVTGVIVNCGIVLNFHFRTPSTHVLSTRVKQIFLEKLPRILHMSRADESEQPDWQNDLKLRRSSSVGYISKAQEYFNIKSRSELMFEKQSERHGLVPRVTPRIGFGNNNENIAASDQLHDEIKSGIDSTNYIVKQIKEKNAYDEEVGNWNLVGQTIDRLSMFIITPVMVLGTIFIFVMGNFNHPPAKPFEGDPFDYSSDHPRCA
The settings on record: one partner purified.

Positions of bridges follow the written chain, without caps; N, C: chain ends. No end group written: not given here.

As a reminder, the IC50 is the concentration that inhibits the measured activity by half.

T1 sequence (P36544 23-502): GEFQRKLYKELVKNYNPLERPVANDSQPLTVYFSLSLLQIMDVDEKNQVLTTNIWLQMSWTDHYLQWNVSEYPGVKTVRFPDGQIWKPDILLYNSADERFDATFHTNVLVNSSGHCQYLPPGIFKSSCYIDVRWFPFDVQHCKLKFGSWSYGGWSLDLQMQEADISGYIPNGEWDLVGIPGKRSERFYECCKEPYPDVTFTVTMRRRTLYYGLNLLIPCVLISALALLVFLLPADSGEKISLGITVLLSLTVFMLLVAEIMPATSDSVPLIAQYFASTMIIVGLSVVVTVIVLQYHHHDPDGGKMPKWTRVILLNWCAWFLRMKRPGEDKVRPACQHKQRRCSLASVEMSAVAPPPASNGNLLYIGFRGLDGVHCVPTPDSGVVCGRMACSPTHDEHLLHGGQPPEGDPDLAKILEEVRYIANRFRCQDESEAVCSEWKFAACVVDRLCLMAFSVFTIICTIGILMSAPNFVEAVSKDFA
T2 sequence (Q9UGM1 23-238): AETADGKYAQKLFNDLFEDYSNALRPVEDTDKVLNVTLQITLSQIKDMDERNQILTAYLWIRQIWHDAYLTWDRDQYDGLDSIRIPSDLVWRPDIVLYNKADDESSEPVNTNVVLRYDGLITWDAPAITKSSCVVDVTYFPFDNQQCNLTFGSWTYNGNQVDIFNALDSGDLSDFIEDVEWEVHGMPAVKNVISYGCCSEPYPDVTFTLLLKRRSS

B1: Lynx1 (1), synthetic loop II fragment of human Lynx1 with Cys added at both termini, disulfide-cyclised (peptide)
peptide: CTTRTYYTPTRMKVSKC
modifications: not fully specified (bridges); cysteine pairing not given here
notes: also called Lynx1 fragment (1); peptide 1
As to B1, the IC50 in test [1] turned out to be 148 µM; in test [2], 173 µM; in test [3], 41.7 µM.

B2: Lynx1 linear (2), synthetic 15-membered loop II fragment of human Lynx1 (peptide)
peptide: TTRTYYTPTRMKVSK
notes: also called Lynx1 linear fragment (2); peptide 2
Take B2: in test [3], the concentration for half-maximal inhibition (IC50) was 40.7 µM. This counts as double-digit micromolar.
Take CKMVRHQRSPYEVVRRMC (disulfide 1-18): the values for the concentration for half-maximal inhibition (IC50) in test [4], in test [2] and in test [3] were 7.4 µM, 13.1 µM and 41.7 µM, respectively.

B3: Lynx1 short (3), shorter loop II fragment of human Lynx1 with terminal Cys, disulfide-cyclised (peptide)
peptide: CTRTYYTPTRMC
modifications: not fully specified (bridges); cysteine pairing not given here
notes: also called peptide 3; cyclic shorter form of Lynx1 fragment
As for B3, the IC50 in test [2] turned out to be 58.9 µM.

B4: Lynx1 short linear (4), shorter loop II fragment of human Lynx1 with free terminal Cys (peptide)
peptide: CTRTYYTPTRMC
notes: also called Lynx1 linear short (4); peptide 4
With B4, in test [2], the IC50 came to 69.2 µM.
